Test results from patent publication US20220281976A1 (Alector, published 2022).
Blank lines part the entries; values can stand above or below the binder they belong to.

Experiments:
human CD33 [1] = molecular target: T1, human CD33 (human, UniProt P20138 18-364); assay: flow cytometry, human primary monocytes; design: reference not given here;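 also: binding of anti-CD33 antibodies at 10 ug/ml to human primary monocytes, 1 h on ice, detected by PE-labelled secondary antibody, flow cytometry readout as mean fluorescence intensity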
T1 construct: CD33 on human primary dendritic cells, macrophages, monocytes and T cells and on CHO cells expressing recombinant human CD33; also called Siglec-3; hCD33
T1 sequence (P20138 18-364): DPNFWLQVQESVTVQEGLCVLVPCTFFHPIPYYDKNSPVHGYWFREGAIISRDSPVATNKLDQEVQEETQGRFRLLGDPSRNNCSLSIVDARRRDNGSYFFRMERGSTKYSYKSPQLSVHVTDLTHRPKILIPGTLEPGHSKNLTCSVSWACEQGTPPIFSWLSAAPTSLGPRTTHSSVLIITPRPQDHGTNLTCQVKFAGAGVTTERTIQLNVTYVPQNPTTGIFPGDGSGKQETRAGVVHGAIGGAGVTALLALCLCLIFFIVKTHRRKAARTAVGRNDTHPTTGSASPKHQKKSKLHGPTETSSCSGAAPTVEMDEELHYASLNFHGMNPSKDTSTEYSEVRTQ

[2] = molecular target: T2, human CD33 Fc fusion protein (human, UniProt P20138 18-259); assay: RBC adhesion to plate-bound CD33-Fc; antibody 1.0 ug/ml;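 also: red blood cells adhering to plate-coated CD33-Fc after 1 h antibody pretreatment, then 1 h at room temperature, bound cells read as peroxidase activity after lysis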
T2 construct: also called hCD33-Fc; human CD33/Fc chimera (R&D Systems)
T2 sequence (P20138 18-259 limits assumed): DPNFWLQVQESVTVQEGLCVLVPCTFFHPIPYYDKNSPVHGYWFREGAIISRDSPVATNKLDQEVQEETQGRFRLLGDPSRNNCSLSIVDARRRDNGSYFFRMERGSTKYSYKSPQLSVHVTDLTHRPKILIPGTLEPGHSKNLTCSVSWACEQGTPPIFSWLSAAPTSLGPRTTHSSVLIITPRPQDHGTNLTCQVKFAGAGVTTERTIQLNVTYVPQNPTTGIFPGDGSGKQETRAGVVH
Experimental: Briefly, 5 ug/ml CD33-Fc was coated overnight at RT in 96 well Immunolon plates, then washed with PBS, blocked for one hour with binding buffer (PBS containing %0.25 BSA 1 mM CaCl₂). CD33 antibodies (0.5 ug/ml or 1.0 ug/ml) or Fabs (25 ug/ml) were bound for one hour at RT with gentle rocking. After removal of unbound antibody, red blood cells were added to each well at a concentration of 3.0×10⁶ cells per ml and incubated at RT for one hour. Unbound RBCs were then carefully washed off 3× with PBS, and water was added to each well for hypotonic lysis of bound RBCs. The plate was transferred to −80° C. for 10 minutes, followed by 37° C. for 15 minutes. Bound RBCs were detected by peroxidase activity, followed by 2N sulfuric acid to stop the reaction.

[3] = molecular target: T2, human CD33 Fc fusion protein; assay: RBC adhesion to plate-bound CD33-Fc; antibody 0.5 ug/ml;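 also: Plate-coated CD33-Fc preincubated 1 h with antibody, then red blood cells added for 1 h at room temperature, adherent cells lysed and quantified via peroxidase activity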
human CD33 [4] = molecular target: T1, human CD33; assay: flow cytometry, human primary T cells;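 also: binding of anti-CD33 antibodies at 10 ug/ml to human primary T cells, 1 h on ice, detected with PE-labelled secondary antibody, read as flow cytometry MFI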
human CD33 [5] = molecular target: T1, human CD33; assay: flow cytometry, human primary macrophages;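 also: binding of CD33 antibodies at 10 µg/ml to human primary macrophages, 1 h on ice, detected with PE-labelled secondary antibody by flow cytometry, reported as MFI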
Experimental: Initial characterization of CD33 antibodies involved determining their ability to bind CD33 expressed on a CHO cell line, on human primary monocytes, human primary macrophages, human primary dendritic cells, and on human primary T cells. Cells were harvested, plated at 10⁶/ml in a 96 well plate, and incubated in 100 ul PBS containing 2% FBS, 2 mM EDTA and 10 ug/ml Mab and Fc blocking reagent for 1 hour in ice. Cells were washed twice and incubated in 100 ul PBS containing 2% FBS, 2 mM EDTA and 5 ug/ml PE-conjugated secondary antibody for 30 minutes on ice. Cells were washed twice in cold PBS and analyze by flow cytometry on a BD FACS Canto. Data analysis and calculation of MFI values was performed with FlowJo (TreeStar) software version 10.0.7.

human CD33 [6] = molecular target: T1, human CD33; assay: cell-based or functional assay
[7] = molecular target: T3, mouse CD33 Fc fusion protein (mouse, UniProt Q63994 18-240, limits assumed); assay: ForteBio BLI or MSD-SET
T3 construct: also called mCD33-Fc
T3 sequence: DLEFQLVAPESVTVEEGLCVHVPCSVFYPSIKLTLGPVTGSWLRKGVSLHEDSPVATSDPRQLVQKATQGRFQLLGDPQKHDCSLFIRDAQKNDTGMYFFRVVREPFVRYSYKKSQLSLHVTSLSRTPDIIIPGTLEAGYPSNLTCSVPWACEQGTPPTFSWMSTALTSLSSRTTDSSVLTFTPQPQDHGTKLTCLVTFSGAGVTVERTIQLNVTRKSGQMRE

human CD33 [8] = molecular target: T1, human CD33; assay: flow cytometry, human primary dendritic cells;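 also: binding of anti-CD33 antibodies (10 ug/ml, 1 h on ice) to human primary dendritic cells, detected with a PE-labelled secondary antibody, reported as flow cytometry MFI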
[9] = molecular target: T4, human monomeric His tagged CD33 protein (human, UniProt P20138 18-259); assay: ForteBio BLI or MSD-SET, IgG, monomeric antigen;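 also: BLI: antibodies captured on AHQ sensors, 100 nM antigen association 5 min, dissociation 5 min, 1:1 fit. MSD-SET: antigen fixed at 50 pM, antibody titrated, quadratic fit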
T4 construct: also called hCD33-His
T4 sequence (P20138 18-259 limits assumed): as the sequence (P20138 18-259 limits assumed) above
Experimental: The binding affinity of each anti-CD33 antibody was determined by measuring their KD by ForteBio or MSD-SET. […] Briefly, ForteBio affinity measurements were performed by loading IgGs on-line onto AHQ sensors. Sensors were equilibrated off-line in assay buffer for 30 min and then monitored on-line for 60 seconds for baseline establishment. Sensors with loaded IgGs were exposed to 100 nM antigen for 5 minutes, then transferred to assay buffer for 5 min for off-rate measurement. Kinetics were analyzed using the 1:1 binding model.
Solution equilibrium titrations (SET) were performed in PBS+0.1% IgG-Free BSA (PBSF) with antigen held constant at 50 pM and incubated with 3-to 5-fold serial dilutions of antibody starting at 10 nM. Antibodies (20 nM in PBS) were coated onto standard bind MSD-ECL plates overnight at 4° C. or at room temperature for 30 min. Plates were then blocked for 30 min with shaking at 700 rpm, followed by three washes with wash buffer (PBSF+0.05% Tween 20). SET samples were applied and incubated on the plates for 150s with shaking at 700 rpm followed by one wash. Antigen captured on a plate was detected with 250 ng/mL sulfotag-labeled streptavidin in PBSF by incubation on the plate for 3 min. The plates were washed three times with wash buffer and then read on the MSD Sector Imager 2400 instrument using 1× Read Buffer T with surfactant. The percent free antigen was plotted as a function of titrated antibody in Prism and fit to a quadratic equation to extract the KD. To improve throughput, liquid handling robots were used throughout MSD-SET experiments, including SET sample preparation.

[10] = molecular target: T2, human CD33 Fc fusion protein; assay: ForteBio BLI or MSD-SET, IgG, avid;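 also: Anti-CD33 IgG affinity by BLI, IgG captured on AHQ sensors with antigen in solution and a one-to-one kinetic fit, or by MSD solution equilibrium titration with quadratic fit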

B1: C-13 (antibody, V domains shown)
VH: EVQLVESGGGLVQPGGSLRLSCAASGFTFSSYWMSWVRQAPGKGLEWVANIKSDGSEKYYVDSVKGRFTISRDNAKNSLYLQMNSLRAEDTAVYYCARGPSYLASGAFDLWGRGTLVTVSS
VL: EIVLTQSPATLSLSPGERATLSCRASQSVSSYLAWYQQKPGQAPRLLIYDASNRATGIPARFSGSGSGTDFTLTISSLEPEDFAVYYCQQAYVVPPRTFGGGTKVEIK
notes: human IgG1
Monocyte MFI (human CD33 [1]): 181
Percent RBC Binding to CD33 [2]: 15.3%
Percent RBC Binding to CD33 [3]: 41.3%
T cell MFI (human CD33 [4]): 205
Macrophage MFI (human CD33 [5]): 838
Percent CD33 Surface Expression, DC % CD33 (human CD33 [6]): 21.8%
Percent CD33 Surface Expression, Macrophage % CD33 (human CD33 [6]): 63.1%
Percent CD33 Surface Expression, Monocyte % CD33 (human CD33 [6]): 48%
binding result [7]: no binding (tested: 100 nM)
DC MFI (human CD33 [8]): 1740
Kd [9]: 9.97 nM

B2: C-19 (antibody, V domains shown)
VH: QLQLQESGPGLVKPSETLSLTCTVSGGSISSSSYAWGWIRQPPGKGLEWIGSIYYSGSTYYNPSLKSRVTISVDTSKNQFSLKLSSVTAADTAVYYCARVGYTRPYGMDVWGQGTTVTVSS
VL: DIQMTQSPSSVSASVGDRVTITCRASQGISSWLAWYQQKPGKAPKLLIYAASSLQSGVPSRFSGSGSGTDFTLTISSLQPEDFATYYCQQINAHPTFGGGTKVEIK
notes: human IgG1
Monocyte MFI (human CD33 [1]): 182
Percent RBC Binding to CD33 [2]: 14.3%
Percent RBC Binding to CD33 [3]: 19.5%
T cell MFI (human CD33 [4]): 470
Macrophage MFI (human CD33 [5]): 887
Percent CD33 Surface Expression, DC % CD33 (human CD33 [6]): 11.6%
Percent CD33 Surface Expression, Macrophage % CD33 (human CD33 [6]): 58.7%
Percent CD33 Surface Expression, Monocyte % CD33 (human CD33 [6]): 28.2%
binding result [7]: no binding (tested: 100 nM)
DC MFI (human CD33 [8]): 1700
Kd [9]: 1.82 nM

B3: C-35 (antibody, V domains shown)
VH: QLQLQESGPGLVKPSETLSLTCTVSGGSISSSSYAWGWIRQPPGKGLEWIGNIYYSGSTYYNPSLKSRVTISVDTSKNQFSLKLSSVTAADTAVYYCARAGYRSPSGFDYWGQGTLVTVSS
VL: DIQMTQSPSSVSASVGDRVTITCRASQGISSWLAWYQQKPGKAPKLLIYAASNLQSGVPSRFSGSGSGTDFTLTISSLQPEDFATYYCQQGNAHPTFGGGTKVEIK
notes: human IgG1
Monocyte MFI (human CD33 [1]): 160
Percent RBC Binding to CD33 [2]: 7.18%
Percent RBC Binding to CD33 [3]: 16.6%
T cell MFI (human CD33 [4]): 186
Macrophage MFI (human CD33 [5]): 920
Percent CD33 Surface Expression, DC % CD33 (human CD33 [6]): 18.7%
Percent CD33 Surface Expression, Macrophage % CD33 (human CD33 [6]): 51.2%
Percent CD33 Surface Expression, Monocyte % CD33 (human CD33 [6]): 31.9%
binding result [7]: no binding (tested: 100 nM)
DC MFI (human CD33 [8]): 1320
Kd [9]: 4.26 nM

B8: C-18 (antibody, V domains shown)
VH: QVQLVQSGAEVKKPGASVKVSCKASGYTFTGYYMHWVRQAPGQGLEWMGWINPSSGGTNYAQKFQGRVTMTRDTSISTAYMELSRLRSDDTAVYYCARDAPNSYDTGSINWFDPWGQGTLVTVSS
VL: DIQMTQSPSSVSASVGDRVTITCRASQGISSWLAWYQQKPGKAPKLLIYAASSLQSGVPSRFSGSGSGTDFTLTISSLQPEDFATYYCQQANYHPLTFGGGTKVEIK
notes: human IgG1
Monocyte MFI (human CD33 [1]): 189
Percent RBC Binding to CD33 [2]: 119%
Percent RBC Binding to CD33 [3]: 111%
T cell MFI (human CD33 [4]): 43.4
Macrophage MFI (human CD33 [5]): 981
Percent CD33 Surface Expression, DC % CD33 (human CD33 [6]): 80%
Percent CD33 Surface Expression, Monocyte % CD33 (human CD33 [6]): 84.8%
binding result [7]: no binding (tested: 100 nM)
DC MFI (human CD33 [8]): 1190
Kd [9]: 16.1 nM

B10: C-36 (antibody, V domains shown)
VH: EVQLVESGGGLVQPGGSLRLSCAASGFTFSSYWMSWVRQAPGKGLEWVANIKQDGSEKYYVDSVKGRFTISRDNAKNSLYLQMNSLRAEDTAVYYCARDGQYYPAYGMDVWGQGTTVTVSS
VL: EIVMTQSPATLSVSPGERATLSCRASQSVSSNLAWYQQKPGQAPRLLIYGASTRATGIPARFSGSGSGTEFTLTISSLQSEDFAVYYCQQYFDLPTFGGGTKVEIK
notes: human IgG1
Monocyte MFI (human CD33 [1]): 144
Percent RBC Binding to CD33 [2]: 16.1%
Percent RBC Binding to CD33 [3]: 13.4%
T cell MFI (human CD33 [4]): 228
Macrophage MFI (human CD33 [5]): 853
Percent CD33 Surface Expression, DC % CD33 (human CD33 [6]): 21.2%
Percent CD33 Surface Expression, Macrophage % CD33 (human CD33 [6]): 36.3%
Percent CD33 Surface Expression, Monocyte % CD33 (human CD33 [6]): 46.6%
binding result [7]: no binding (tested: 100 nM)
DC MFI (human CD33 [8]): 1160
Kd [9]: 2.35 nM

Further lines, results first:

Monocyte MFI (human CD33 [1]): 74
Percent RBC Binding to CD33 [2]: 6.65%
Percent RBC Binding to CD33 [3]: 21.2%
T cell MFI (human CD33 [4]): 269
Macrophage MFI (human CD33 [5]): 617
Percent CD33 Surface Expression, DC % CD33 (human CD33 [6]): 27.8%
Percent CD33 Surface Expression, Macrophage % CD33 (human CD33 [6]): 52.2%
Percent CD33 Surface Expression, Monocyte % CD33 (human CD33 [6]): 44.9%
binding result [7]: no binding (tested: 100 nM)
DC MFI (human CD33 [8]): 1130
Kd [9]: 12.7 nM
B4: C-42 (antibody, V domains shown)
VH: QLQLQESGPGLVKPSETLSLTCTVSGGSISSSSYYWGWIRQPPGKGLEWIGSIYYSGSTYYNPSLKSRVTISVDTSKNQFSLKLSSVTAADTAVYYCAREPIYRRGMDVWGQGTTVTVSS
VL: EIVLTQSPATLSLSPGERATLSCRASQSVSSYLAWYQQKPGQAPRLLIYDASNRATGIPARFSGSGSGTDFTLTISSLEPEDFAVYYCQQFSNYPTFGGGTKVEIK
notes: human IgG1

Monocyte MFI (human CD33 [1]): 107
Percent RBC Binding to CD33 [2]: 19.3%
Percent RBC Binding to CD33 [3]: 44%
T cell MFI (human CD33 [4]): 772
Macrophage MFI (human CD33 [5]): 729
Percent CD33 Surface Expression, DC % CD33 (human CD33 [6]): 77.4%
Percent CD33 Surface Expression, Monocyte % CD33 (human CD33 [6]): 59.9%
binding result [7]: no binding (tested: 100 nM)
DC MFI (human CD33 [8]): 892
Kd [9]: 100 nM
B5: C-66 (antibody, V domains shown)
VH: QLQLQESGPGLVKPSETLSLTCTVSGGSISSSSYYWGWIRQPPGKGLEWIGSIYYSGSTYYNPSLKSRVTISVDTSKNQFSLKLSSVTAADTAVYYCAREVGYPYGMDVWGQGTTVTVSS
VL: DIQLTQSPSSLSASVGDRVTITCQASQDISNFLNWYQQKPGKAPKLLIYDASNLETGVPSRFSGSGSGTDFTFTISSLQPEDIATYYCQQYSDLPTFGGGTKVEIK
notes: human IgG1

Monocyte MFI (human CD33 [1]): 84
Percent RBC Binding to CD33 [2]: 7.46%
Percent RBC Binding to CD33 [3]: 23%
T cell MFI (human CD33 [4]): 192
Macrophage MFI (human CD33 [5]): 652
Percent CD33 Surface Expression, DC % CD33 (human CD33 [6]): 47.5%
Percent CD33 Surface Expression, Macrophage % CD33 (human CD33 [6]): 68.8%
Percent CD33 Surface Expression, Monocyte % CD33 (human CD33 [6]): 53.9%
binding result [7]: no binding (tested: 100 nM)
DC MFI (human CD33 [8]): 938
Kd [9]: 32.2 nM
B6: C-70 (antibody, V domains shown)
VH: QVQLVESGGGVVQPGRSLRLSCAASGFTFSTYGMHWVRQAPGKGLEWVAVIWYDGSNKYYADSVKGRFTISRDNSKNTLYLQMNSLRAEDTAVYYCARGQHGTSRVDFDYWGQGTLVTVSS
VL: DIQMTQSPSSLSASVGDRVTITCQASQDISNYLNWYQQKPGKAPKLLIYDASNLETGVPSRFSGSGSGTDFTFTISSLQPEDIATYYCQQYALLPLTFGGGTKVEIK
notes: human IgG1

Monocyte MFI (human CD33 [1]): 94
Percent RBC Binding to CD33 [2]: 13.7%
Percent RBC Binding to CD33 [3]: 29.8%
T cell MFI (human CD33 [4]): 210
Macrophage MFI (human CD33 [5]): 573
Percent CD33 Surface Expression, DC % CD33 (human CD33 [6]): 22.9%
Percent CD33 Surface Expression, Macrophage % CD33 (human CD33 [6]): 55.9%
Percent CD33 Surface Expression, Monocyte % CD33 (human CD33 [6]): 24.9%
binding result [7]: no binding (tested: 100 nM)
DC MFI (human CD33 [8]): 1050
Kd [9]: 23.7 nM
B7: C-73 (antibody, V domains shown)
VH: QVQLVESGGGVVQPGRSLRLSCAASGFTFSSYGMHWVRQAPGKGLEWVAVIWYDGSNKYYADSVKGRFTISRDNSKNTLYLQMNSLRAEDTAVYYCARGTNAYGTPRDFDLWGRGTLVTVSS
VL: DIQMTQSPSSLSASVGDRVTITCRASQSISSYLNWYQQKPGKAPKLLIYAASSLQSGVPSRFSGSGSGTDFTLTISSLQPEDFATYYCQQLSDTPITFGGGTKVEIK
notes: human IgG1

Monocyte MFI (human CD33 [1]): 646
Percent RBC Binding to CD33 [2]: 108%
Percent RBC Binding to CD33 [3]: 98.7%
T cell MFI (human CD33 [4]): 80.6
Macrophage MFI (human CD33 [5]): 409
Percent CD33 Surface Expression, DC % CD33 (human CD33 [6]): 79.6%
Percent CD33 Surface Expression, Monocyte % CD33 (human CD33 [6]): 87.8%
binding result [7]: no binding (tested: 100 nM)
DC MFI (human CD33 [8]): 70
Kd [9]: 59.3 nM
B9: C-83 (antibody, V domains shown)
VH: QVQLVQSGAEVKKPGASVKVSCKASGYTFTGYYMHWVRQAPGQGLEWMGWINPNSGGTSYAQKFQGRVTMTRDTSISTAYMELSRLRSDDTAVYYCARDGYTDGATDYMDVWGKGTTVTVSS
VL: DIQLTQSPSSVSASVGDRVTITCRASQGISSWLAWYQQKPGKAPKLLIYAASSLQSGVPSRFSGSGSGTDFTLTISSLQPEDFATYYCQQAYALPPTFGGGTKVEIK
notes: human IgG1

Monocyte MFI (human CD33 [1]): 117
Percent RBC Binding to CD33 [2]: 5.66%
Percent RBC Binding to CD33 [3]: 17.1%
T cell MFI (human CD33 [4]): 28.8
Macrophage MFI (human CD33 [5]): 872
Percent CD33 Surface Expression, DC % CD33 (human CD33 [6]): 56.8%
Percent CD33 Surface Expression, Monocyte % CD33 (human CD33 [6]): 75.6%
binding result [7]: no binding (tested: 100 nM)
DC MFI (human CD33 [8]): 1200
Kd [10]: 4.01 nM
B11: C-63 (antibody, V domains shown)
VH: QVQLVQSGAEVKKPGSSVKVSCKASGGTFSSYAISWVRQAPGQGLEWMGSIIPIFGTANYAQKFQGRVTITADESTSTAYMELSSLRSEDTAVYYCARDLGGQYYGSHHYWGQGTLVTVSS
VL: EIVLTQSPATLSVSPGERATLSCRASQSVGSNLAWYQQKPGQAPRLLIYGASTRATGIPARFSGSGSGTEFTLTISSLQSEDFAVYYCQQYNAWPLTFGGGTKVEIK
notes: human IgG1
